This note sets out measurements from paper PMC3598421.

The target in the data set is T1, BdSWN5 (Brachypodium distachyon, UniProt I2E2W5 1-346).
T1 sequence: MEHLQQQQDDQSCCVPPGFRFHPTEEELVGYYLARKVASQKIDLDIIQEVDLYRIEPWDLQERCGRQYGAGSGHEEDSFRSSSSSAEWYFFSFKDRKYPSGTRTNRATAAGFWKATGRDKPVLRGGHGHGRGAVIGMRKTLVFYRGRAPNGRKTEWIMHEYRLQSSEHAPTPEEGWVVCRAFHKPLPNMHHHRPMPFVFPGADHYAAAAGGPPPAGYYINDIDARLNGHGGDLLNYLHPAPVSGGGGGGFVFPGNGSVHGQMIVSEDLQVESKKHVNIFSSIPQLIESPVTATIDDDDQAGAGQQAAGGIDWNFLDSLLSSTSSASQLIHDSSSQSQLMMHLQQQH
The data set is described as follows: competition.

B1: SNBE1 M1 motif (dsDNA)
DNA 1: AGCATACATTTATAGGAAGCGTATTCTCGCAGTCA
DNA 2: TGACTGCGAGAATACGCTTCCTATAAATGTATGCT
As to B1, the binding result is “no binding”.

B2: SNBE2 M2 motif (dsDNA)
DNA 1: TTTTACATTGCATATGCTTTGTATCAATTGCCCAA
DNA 2: TTGGGCAATTGATACAAAGCATATGCAATGTAAAA
In the case of B2, the binding result is “no binding”.
